Assay results reported in patent US20240148892A1.

Legend:
[1] = biological target: human full-length B7H3 expressed on MCF-7 cells (human) (UniProt Q5ZPR3); assay: flow cytometry (FACS) on MCF-7 cells expressing human full-length B7H3; negative control
[2] = biological target: human full-length B7H3 expressed on MCF-7 cells (human) (UniProt Q5ZPR3); assay: cell-based or functional assay
[3] = biological target: cynomolgus monkey B7H3 on transfected FlpinCHO cells (cynomolgus monkey); assay: flow cytometry (FACS) on FlpinCHO cells transfected with cynomolgus monkey B7H3; negative control

Chain of human full-length B7H3 expressed on MCF-7 cells (human) (Q5ZPR3 29-534 limits assumed): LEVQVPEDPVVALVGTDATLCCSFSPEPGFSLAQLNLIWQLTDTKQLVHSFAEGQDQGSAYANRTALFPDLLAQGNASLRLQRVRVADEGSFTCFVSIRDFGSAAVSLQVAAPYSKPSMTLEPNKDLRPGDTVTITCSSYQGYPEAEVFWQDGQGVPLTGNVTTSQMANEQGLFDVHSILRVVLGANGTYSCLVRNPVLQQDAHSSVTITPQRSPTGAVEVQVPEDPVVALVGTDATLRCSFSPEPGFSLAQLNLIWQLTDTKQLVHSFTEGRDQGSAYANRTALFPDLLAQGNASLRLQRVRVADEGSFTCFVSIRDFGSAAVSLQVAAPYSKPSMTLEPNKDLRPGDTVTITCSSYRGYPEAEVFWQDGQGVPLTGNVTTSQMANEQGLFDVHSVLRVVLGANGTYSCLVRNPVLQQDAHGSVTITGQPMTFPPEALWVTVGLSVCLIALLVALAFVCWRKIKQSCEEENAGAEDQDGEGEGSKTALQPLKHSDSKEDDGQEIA

Maximum MFI [1]: 47.8 MFI
Antibody internalization Maximum MFI, MCF-7 cells, high-content imaging (negative control) [2]: 21 MFI
Maximum MFI [3]: 6.67 MFI
Substance: hIgG1 isotype (antibody)
